# Experimental data published in patent US20240376207A1 (JIANGSU HENGRUI PHARMACEUTICALS, published 2024).
# T1: mouse IgG2a Fc-tagged human PVRIG (h-PVRIG-mIgG2a Fc) recombinant protein (human, UniProt Q6DKI7 41-171, limits assumed)
# T1 construct: bought from Acrobiosystems; not shown: mouse IgG2a Fc tag
# T1 sequence (looked up): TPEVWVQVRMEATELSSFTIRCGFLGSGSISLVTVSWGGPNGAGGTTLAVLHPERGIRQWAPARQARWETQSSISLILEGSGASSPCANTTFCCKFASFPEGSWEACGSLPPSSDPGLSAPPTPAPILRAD
# T2: human PVRIG expressed on cells (human, UniProt Q6DKI7 41-326)
# T2 sequence (looked up): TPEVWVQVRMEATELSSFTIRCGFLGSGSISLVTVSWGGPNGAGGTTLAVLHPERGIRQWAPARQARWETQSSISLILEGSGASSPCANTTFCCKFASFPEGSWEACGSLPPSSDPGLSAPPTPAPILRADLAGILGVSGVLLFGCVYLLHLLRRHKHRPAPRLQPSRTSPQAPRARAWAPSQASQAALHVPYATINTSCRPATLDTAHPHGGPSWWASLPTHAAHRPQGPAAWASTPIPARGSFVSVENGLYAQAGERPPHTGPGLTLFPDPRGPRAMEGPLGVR
# T3: human TIGIT expressed on cells (human, UniProt Q495A1 22-244)
# T3 construct: whole, on cells; also called cells overexpressing human TIGIT
# T3 sequence (looked up): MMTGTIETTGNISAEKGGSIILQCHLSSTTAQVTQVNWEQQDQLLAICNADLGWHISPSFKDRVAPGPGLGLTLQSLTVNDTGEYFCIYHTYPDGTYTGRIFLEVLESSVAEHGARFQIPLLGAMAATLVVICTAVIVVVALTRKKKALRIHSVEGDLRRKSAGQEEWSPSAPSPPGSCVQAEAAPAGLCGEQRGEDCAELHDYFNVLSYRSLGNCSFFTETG
# Tests used:
# [1] = molecular target: T1, mouse IgG2a Fc-tagged human PVRIG …; experiment: competition ELISA; coated h-PVRIG-mIgG2a Fc, competitor his-PVRL2
# Experimental: In this experiment, by in vitro blocking experiment, the ability of the selected anti-PVRIG antibodies to block the binding of human PVRIG to its ligand human PVRL2 was detected. Specifically, a mouse IgG2a Fc-tagged human PVRIG recombinant protein (h-PVRIG-mIgG2a Fc) was coated on a 96-well microplate, an anti-PVRIG antibody was added to fully bind to and occupy an epitope, then his-tagged PVRL2 (PV2-H52E2, AcroBiosystem) was added, and the binding amount of PVRIG and PVRL2 was calculated by detecting the his tag. The IC₅₀ value of the anti-PVRIG antibody for blocking the PVRIG active site was calculated.
# The h-PVRIG-mIgG2a Fc protein (at a concentration of 1 μg/mL) was coated on the 96-well microplate at 100 μL per well, and incubated overnight at 4° C. The plate was washed three times with wash buffer at 250 μL per well. For each wash, the plate was shaken for 10 s to ensure adequate cleaning. A blocking solution was added at 300 μL/well, and the plate was incubated at room temperature for 1 h. The plate was washed three times with wash buffer at 250 μL per well. For each wash, the plate was shaken for 10 s to ensure adequate cleaning. 50 μL of diluted test anti-PVRIG antibody and 50 μL of his-tagged ligand PVRL2 were added to each well, and the plate was incubated at 37° C. for 1 h. The plate was washed three times with wash buffer at 250 μL per well. The HRP-labeled anti-his-tagged secondary antibody (Genscrpit) diluted at 1:2000 was added at 100 μL per well. The plate was incubated at 37° C. for 1 h. The plate was washed three times with wash buffer at 250 μL per well. TMB was added at 100 μL/well, and the plate was incubated in the dark for 15 min. 0.16 M sulfuric acid was added at 50 μL/well. OD values at 450 nm were measured using a Thermo MμtLtiSkanFc microplate reader, and the IC₅₀ values of the anti-PVRIG antibodies blocking the binding of PVRIG to PVRL2 were calculated.
# [2] = molecular target: T2, human PVRIG expressed on cells; experiment: cell-based or functional assay
# [3] = molecular target: T2, human PVRIG expressed on cells; experiment: FACS, HEK293 cells overexpressing target
# Source text: A flow cytometer (FACS) was used to detect binding properties of anti-PVRIG antibodies. A cell strain overexpressing human or cynomolgus monkey PVRIG was constructed, and after the addition of the antibody, the activity of the binding of the antibody to the antigen was detected by the addition of a secondary antibody.
# (§1) The expression plasmid carrying human or cynomolgus monkey PVRIG gene sequence was transfected into HEK293 cells, and the over-expressing stable transfection monoclonal cell strain was obtained by antibiotic screening and infinite dilution. Overexpressing cells were seeded into a 96-well plate at 2×10⁵ cells/per well. The cells were centrifuged at 300 g for 5 min, the supernatant was then removed, 100 μL of the test antibody was added, and the mixture was incubated at 4° C. for 1 h. The mixture was centrifuged, the supernatant was removed, the plate was washed 3 times with 200 μL of wash buffer (PBS+2% FBS), and then 100 μL of an anti-human IgG secondary antibody (Invitrogen, A-11013) labeled with Alexa Fluor 488 diluted at 1:500 was added. The mixture was incubated at 4° C. for 1 h. The plate was centrifuged, and the supernatant was removed. The plate was washed 3 times with 200 μL of wash buffer (PBS+2% FBS). The cells were resuspended in 100 μL of PBS and tested on a flow cytometer (BD FACS Calibur or BD FACS Canto_II).
# [4] = molecular target: T4, cynomolgus monkey TIGIT expressed on cells (cynomolgus monkey, UniProt A0A7N9I9V4 89-312); experiment: FACS, cells overexpressing target
# T4 construct: whole, on cells; also called cells overexpressing cynomolgus monkey TIGIT
# Experimental: as §1
# (§2) Similarly to Examples 4, 5 and 6, the binding of humanized anti-PVRIG/TIGIT bispecific antibodies to human and cynomolgus monkey TIGIT and blocking of binding of human TIGIT to ligand were detected, where PVRIG protein was replaced with TIGIT and PVRL2 was replaced with PVR.
# [5] = molecular target: T3, human TIGIT expressed on cells; experiment: FACS, cells overexpressing target
# Experimental: as §1, §2
# [6] = molecular target: T2, human PVRIG expressed on cells; experiment: FACS, cells overexpressing target
# Experimental: as §1
# Binding of the humanized anti-PVRIG/TIGIT bispecific antibodies to human and cynomolgus monkey PVRIG and their blocking of the ligand of human PVRIG were detected according to the methods of Examples 4, 5 and 6.
# T4 sequence (A0A7N9I9V4 entry or part of it): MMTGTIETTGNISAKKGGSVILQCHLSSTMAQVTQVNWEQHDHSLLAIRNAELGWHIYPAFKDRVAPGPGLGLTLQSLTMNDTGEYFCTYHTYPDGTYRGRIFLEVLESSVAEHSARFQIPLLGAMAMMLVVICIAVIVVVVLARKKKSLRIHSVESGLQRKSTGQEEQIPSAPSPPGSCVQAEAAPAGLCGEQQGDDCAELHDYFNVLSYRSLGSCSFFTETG
IC50 [1],"MLR IFNγ (pg/mL), 4 nM antibody [2]","MLR IFNγ (pg/mL), 20 nM antibody [2]","MLR IFNγ (pg/mL), 100 nM antibody [2]",EC50 [3],EC50 [4],EC50 [5],EC50 [6],binding result [4],binding result [5],Binder
0.37 nM,1500 pg/mL,2220 pg/mL,1800 pg/mL,0.01 nM,–,–,–,–,–,"anti-PVRIG antibody 151 (antibody, human IgG4 S228P, F234A L235A, V domains shown, no light chain) VH: HVQLVESGGGSVQAGGSLRLSCVASASGFTYRPYCMAWFRQAPGKEREAVAGIDIFGGTTYADSVKGRFTASRDNAGFSLFLQMNDLKPEDTAMYYCAAGDSPDGRCPPLGQGLNYWGQGTQVTVSS"
0.76 nM,–,–,–,0.004 nM,–,–,–,–,–,"anti-PVRIG antibody 39 (antibody, human IgG4 S228P, F234A L235A, V domains shown, no light chain) VH: QVQLVESGGGSVQAGGSLRLSCAASRYTSRTDCMGWFRQAPGKEREGVAHIDSDGIPRYVESVKGRFTISQDHAKNTLYLQMNSLKPEDSATYYCVVGFKFGDYCAPNDWGQGTQVTVSS"
–,–,–,–,–,0.009 nM,0.01 nM,0.075 nM,–,–,"humanized anti-PVRIG/TIGIT bispecific antibody 1708-20H5 (bispecific antibody, human IgG4 S228P, kappa) heavy: not shown light: DIQMTQSPSSLSASVGDRVTITCRASENIYSYLAWYQQKPGKSPKLLIYNARTLAEGVPSRFSGSGSGTDFTLTISSLQPEDFATYYCQYHSGSPLPFGGGTKVEIKRTVAAPSVFIFPPSDEQLKSGTASVVCLLNNFYPREAKVQWKVDNALQSGNSQESVTEQDSKDSTYSLSSTLTLSKADYEKHKVYACEVTHQGLSSPVTKSFNRGEC"
–,–,–,–,–,0.009 nM,0.01 nM,0.056 nM,–,–,"humanized anti-PVRIG/TIGIT bispecific antibody 1708-30H2 (bispecific antibody, human IgG4 S228P, kappa) heavy: not shown light: DIQMTQSPSSLSASVGDRVTITCRASENIYSYLAWYQQKPGKSPKLLIYNARTLAEGVPSRFSGSGSGTDFTLTISSLQPEDFATYYCQYHSGSPLPFGGGTKVEIKRTVAAPSVFIFPPSDEQLKSGTASVVCLLNNFYPREAKVQWKVDNALQSGNSQESVTEQDSKDSTYSLSSTLTLSKADYEKHKVYACEVTHQGLSSPVTKSFNRGEC"
1.16 nM,912 pg/mL,1420 pg/mL,2350 pg/mL,2.13 nM,–,–,0.789 nM,no binding,no binding,"positive antibody Tab5 (antibody, human IgG4 S228P, kappa, F234A L235A, V domains shown, Variable regions of CPA.7.021 (WO2016134333A1) on human IgG4 (S228P/F234A/L235A/K447A) and human kappa constant regions) VH: EVQLVESGGGVVKPGGSLRLSCAASGFTFGTSSMNWVRQAPGKGLEWVAVISFDGTEIHYADSVKGRFTISRDNSKSTVFLQMNSLRPDDTALYYCAKGSGNIYFYSGMDVWGQGTTVTVSS VL: DIQMTQSPSTLSASVGDRVTITCRAGQSISGWLAWFQQKPGKAPNLLIYETSTLESGVPSRFSGSGSGTEYTLTISSLQPDDFATYYCQQYYSYPLTFGQGTKVEIKR"
0.93 nM,1390 pg/mL,2020 pg/mL,2130 pg/mL,0.24 nM,–,–,–,–,–,"anti-PVRIG antibody 38 (antibody, human IgG4 S228P, F234A L235A, V domains shown, no light chain) VH: QVQLVESGGGSVQAGGSLRLSCAASPSTYGPSDMAWFRQAPGKQREGVATISAAGRLTYYTDSVRGRFTISRDNAKNTMYLQMNSLKPEDTAMYYCAADFAGGSSLFADYKYWGQGTQVTVSS"
1.11 nM,1680 pg/mL,1910 pg/mL,1580 pg/mL,–,–,–,–,–,–,"anti-PVRIG antibody 30 (antibody, human IgG4 S228P, F234A L235A, V domains shown, no light chain) VH: HVQLVESGGGSVQAGGSLRLSCEASGYSYSGDCMGWFRRAPGKERDEGVATIDNAGRIKYADSVKGRFTISHGNGKYILYLQMNSLKPEDTDMYYCAAGWTFGGNCSPADWGQGTQVTVSS"
